Target: N-type calcium channels (Mus musculus, UniProt O55017)
Assay type: cell-based, Swiss mice
Conditions: Tat-NR2B9c 100 μM, conotoxin 1 μM, FIG. 5A

YGRKKRRQRRRKLSSIESDV [Tat-NR2B9c] (Synthetic peptide Tat-NR2B9c) [chimeric peptide of a standard tat peptide and …]
additional inhibition of Ca^2+ current once N-channels are blocked by Omega conotoxin: no additional inhibition
